B1: Leucine-rich repeat transmembrane neuronal protein 2 (Homo sapiens), O43300 (parent)
chain: MGLHFKWPLGAPMLAAIYAMSMVLKMLPALGMACPPKCRCEKLLFYCDSQGFHSVPNATDKGSLGLSLRHNHITELERDQFASFSQLTWLHLDHNQISTVKEDAFQGLYKLKELILSSNKIFYLPNTTFTQLINLQNLDLSFNQLSSLHPELFYGLRKLQTLHLRSNSLRTIPVRLFWDCRSLEFLDLSTNRLRSLARNGFAGLIKLRELHLEHNQLTKINFAHFLRLSSLHTLFLQWNKISNLTCGMEWTWGTLEKLDLTGNEIKAIDLTVFETMPNLKILLMDNNKLNSLDSKILNSLRSLTTVGLSGNLWECSARICALASWLGSFQGRWEHSILCHSPDHTQGEDILDAVHGFQLCWNLSTTVTVMATTYRDPTTEYTKRISSSSYHVGDKEIPTTAGIAVTTEEHFPEPDNAIFTQRVITGTMALLFSFFFIIFIVFISRKCCPPTLRRIRQCSMVQNHRQLRSQTRLHMSNMSDQGPYNEYEPTHEGPFIIINGYGQCKCQQLPYKECEV

The variants in this assay derive from B1. The note with it: with NRXN1, P58400-1.
NRXN1, P58400-1, sequence (P58400 other isoform, or with tags, fused parts or gaps): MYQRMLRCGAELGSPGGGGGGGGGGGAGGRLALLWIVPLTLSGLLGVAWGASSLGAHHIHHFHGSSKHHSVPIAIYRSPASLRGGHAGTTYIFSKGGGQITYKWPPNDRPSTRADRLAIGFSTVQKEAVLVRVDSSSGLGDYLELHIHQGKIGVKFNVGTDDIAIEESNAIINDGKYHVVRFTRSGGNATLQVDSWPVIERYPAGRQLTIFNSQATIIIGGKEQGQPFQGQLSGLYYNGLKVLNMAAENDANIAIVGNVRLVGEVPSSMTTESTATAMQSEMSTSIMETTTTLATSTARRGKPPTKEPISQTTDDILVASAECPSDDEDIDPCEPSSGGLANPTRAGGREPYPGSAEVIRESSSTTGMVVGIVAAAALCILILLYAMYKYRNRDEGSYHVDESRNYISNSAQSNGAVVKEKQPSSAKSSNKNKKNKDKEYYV
Regarding MGLHFKWPLGAPMLAAIYAMSMVLKMLPALGMACPPKCRCEKLLFYCDSQGFHSVPNATDKGSLGLSLRHNHITELERDQFASFSQLTWLHLDHNQISTVKEDAFQGLYKLKELILSSNKIFYLPNTTFTQLINLQNLDLSFNQLSSLHPELFYGLRKLQTLHLRSNSLRTIPVRLFWDCRSLEFLDLSTNRLRSLARNGFAGLIKLRELHLEHNQLTKINFAHFLRLSSLHTLFLQWNKISNLTCGMEWTWGTLEKLDLTGNEIKAIDLTVFETMPNLKILLMDNNKLNSLDSKILNSLRSLTTVGLSGNLWECSARICALASWLGSFQGRWEHSILCHSPDHTQGEDILDAVAGFQLCWNLSTTVTVMATTYRDPTTEYTKRISSSSYHVGDKEIPTTAGIAVTTEEHFPEPDNAIFTQRVITGTMALLFSFFFIIFIVFISRKCCPPTLRRIRQCSMVQNHRQLRSQTRLHMSNMSDQGPYNEYEPTHEGPFIIINGYGQCKCQQLPYKECEV [H355A], the “effect of a mutation on the interaction” value is “with no effect”.

MGLHFKWPLGAPMLAAIYAMSMVLKMLPALGMACPPKCRCEKLLFYCDSQGFHSVPNATDKGSLGLSLRHNHITELERDQFASFSQLTWLHLDHNQISTVKEDAFQGLYKLKELILSSNKIFYLPNTTFTQLINLQNLDLSFNQLSSLHPELFYGLRKLQTLHLRSNSLRTIPVRLFWDCRSLEFLDLSTNRLRSLARNGFAGLIKLRELHLEHNQLTKINFAHFLRLSSLHTLFLQWNKISNLTCGMEWTWGTLEKLDLTGNEIKAIDLTVFETMPNLKILLMDNNKLNSLDSKILNSLRSLTTVGLSGNLWECSARICALASWLGSFQGRWEHSILCHSPDHTQGQDILDAVHGFQLCWNLSTTVTVMATTYRDPTTEYTKRISSSSYHVGDKEIPTTAGIAVTTEEHFPEPDNAIFTQRVITGTMALLFSFFFIIFIVFISRKCCPPTLRRIRQCSMVQNHRQLRSQTRLHMSNMSDQGPYNEYEPTHEGPFIIINGYGQCKCQQLPYKECEV [E348Q]: the “effect of a mutation on the interaction” value is “disrupting interaction strength”.

Turning to MGLHFKWPLGAPMLAAIYAMSMVLKMLPALGMACPPKCRCEKLLFYCDSQGFHSVPNATDKGSLGLSLRHNHITELERDQFASFSQLTWLHLDHNQISTVKEDAFQGLYKLKELILSSNKIFYLPNTTFTQLINLQNLDLSFNQLSSLHPELFYGLRKLQTLHLRSNSLRTIPVRLFWDCRSLEFLDLSTNRLRSLARNGFAGLIKLRELHLEHNQLTKINFAHFLRLSSLHTLFLQWNKISNLTCGMEWTWGTLEKLDLTGNEIKAIDLTVFETMPNLKILLMDNNKLNSLDSKILNSLRSLTTVGLSGNLWECSARICALASWLGSFQGRWEHSILCHSPDHTQGEDILDAVHGAQLCWNLSTTVTVMATTYRDPTTEYTKRISSSSYHVGDKEIPTTAGIAVTTEEHFPEPDNAIFTQRVITGTMALLFSFFFIIFIVFISRKCCPPTLRRIRQCSMVQNHRQLRSQTRLHMSNMSDQGPYNEYEPTHEGPFIIINGYGQCKCQQLPYKECEV [F357A], the “effect of a mutation on the interaction” value is “decreasing interaction strength”.

Regarding MGLHFKWPLGAPMLAAIYAMSMVLKMLPALGMACPPKCRCEKLLFYCDSQGFHSVPNATDKGSLGLSLRHNHITELERDQFASFSQLTWLHLDHNQISTVKEDAFQGLYKLKELILSSNKIFYLPNTTFTQLINLQNLDLSFNQLSSLHPELFYGLRKLQTLHLRSNSLRTIPVRLFWDCRSLEFLDLSTNRLRSLARNGFAGLIKLRELHLEHNQLTKINFAHFLRLSSLHTLFLQWNKISNLTCGMEWTWGTLEKLDLTGNEIKAIDLTVFETMPNLKILLMDNNKLNSLDSKILNSLRSLTTVGLSGNLWECSARICALASWLGSFQGRWEHSILCHSPDHTQGEDILAAVHGFQLCWNLSTTVTVMATTYRDPTTEYTKRISSSSYHVGDKEIPTTAGIAVTTEEHFPEPDNAIFTQRVITGTMALLFSFFFIIFIVFISRKCCPPTLRRIRQCSMVQNHRQLRSQTRLHMSNMSDQGPYNEYEPTHEGPFIIINGYGQCKCQQLPYKECEV [D352A], the “effect of a mutation on the interaction” value is “decreasing interaction strength”.

With MGLHFKWPLGAPMLAAIYAMSMVLKMLPALGMACPPKCRCEKLLFYCDSQGFHSVPNATDKGSLGLSLRHNHITELERDQFASFSQLTWLHLDHNQISTVKEDAFQGLYKLKELILSSNKIFYLPNTTFTQLINLQNLDLSFNQLSSLHPELFYGLRKLQTLHLRSNSLRTIPVRLFWDCRSLEFLDLSTNRLRSLARNGFAGLIKLAELHLEHNQLTKINFAHFLRLSSLHTLFLQWNKISNLTCGMEWTWGTLEKLDLTGNEIKAIDLTVFETMPNLKILLMDNNKLNSLDSKILNSLRSLTTVGLSGNLWECSARICALASWLGSFQGRWEHSILCHSPDHTQGEDILDAVHGFQLCWNLSTTVTVMATTYRDPTTEYTKRISSSSYHVGDKEIPTTAGIAVTTEEHFPEPDNAIFTQRVITGTMALLFSFFFIIFIVFISRKCCPPTLRRIRQCSMVQNHRQLRSQTRLHMSNMSDQGPYNEYEPTHEGPFIIINGYGQCKCQQLPYKECEV [R208A], the “effect of a mutation on the interaction” value is “disrupting interaction strength”.

Values taken from IntAct's records for PubMed 30262834.
